Source: paper PMC7356578, “Heparin Blocks the Inhibition of Tissue Kallikrein 1 by Kallistatin through Electrostatic Repulsion” (Biomolecules, 2020)
Residue numbers refer to the chain shown, from its start.

B1: Recombinant human kallistatin (rKAL), wild type (natural protein, UniProt P29622 45-427, looked up)
chain: GSPSLKIAPANADFAFRFYYLIASETPGKNIFFSPLSISAAYAMLSLGACSHSRSQILEGLGFNLTELSESDVHRGFQHLLHTLNLPGHGLETRVGSALFLSHNLKFLAKFLNDTMAVYEAKLFHTNFYDTVGTIQLINDHVKKETRGKIVDLVSELKKDVLMVLVNYIYFKALWEKPFISSRTTPKDFYVDENTTVRVPMMLQDQEHHWYLHDRYLPCSVLRMDYKGDATVFFILPNQGKMREIEEVLTPEMLMRWNNLLRKRNFYKKLELHLPKFSISGSYVLDQILPRLGFTDLFSKWADLSGITKQQKLEASKSFHKATLDVDEAGTEAAAATSFAIKFFSAQTNRHILRFNRPFLVVIFSTSTQSVLFLGKVVDPTKP
notes: kallistatin (SERPINA4), human, residues 45-427; Vector pE-SUMO3; purified on a HisTrap column, so the SUMO3 fusion probably carries a His tag that leaves with SUMO3; During storage or crystallisation part of the protein is cleaved between F387 and F388 (P2-P1) by an unknown protease; the crystal structures hold this cleaved form; also called rKAL-WT; SERPINA4; source: E. coli BL21 (DE3), purified …
B2: rKAL-307/308D (natural protein, human, UniProt P29622 45-427, looked up)
chain: B1 chain with K263D, R264D
notes: kallistatin (SERPINA4), human, residues 45-427; double mutant of K307 and R308 to Asp; also called rKAL-K307/308D; source: E. coli BL21 (DE3), purified (HisTrap FF crude, SENP2 digestion, HiTrap SP)
B3: Recombinant human tissue kallikrein 1 (KLK1), wild type (enzyme)
chain: not shown
notes: tissue kallikrein 1 (KLK1), human, residues 25-262; Vector pE-SUMO3; also called kallikrein-related peptidase 1
B4: rKAL-R394D (natural protein, human, UniProt P29622 45-427, looked up)
chain: B1 chain with R350D
notes: kallistatin (SERPINA4), human, residues 45-427; source: E. coli BL21 (DE3), purified (HisTrap FF crude, SENP2 digestion, HiTrap SP)
B5: rKAL-312/313D (natural protein, human, UniProt P29622 45-427, looked up)
chain: B1 chain with K268D, K269D
notes: kallistatin (SERPINA4), human, residues 45-427; double mutant of K312 and K313 to Asp; also called rKAL-K312/313D; source: E. coli BL21 (DE3), purified (HisTrap FF crude, SENP2 digestion, HiTrap SP)
B6: rKAL-R259D (natural protein, human, UniProt P29622 45-427, looked up)
chain: B1 chain with R215D
notes: as for B4
B7: rKAL-R300D (natural protein, human, UniProt P29622 45-427, looked up)
chain: B1 chain with R256D
notes: as for B4

How the values were obtained:
Conditions in all cases: both partners purified
[1] = molecular target: B3; assay: stoichiometry of inhibition by titration of residual protease activity; 1 µM protease with increasing kallistatin variant in PBS, 0.1% PEG 8000, 2 h, 37 °C; residual activity on 0.2 mM H-D-Val-Leu-Arg-AMC; intercept on the abscissa
[2] = molecular target: B3; assay: kinetics of protease inhibition (discontinuous assay); pseudo-first-order; 10 nM protease with 100-500 nM kallistatin variant, PBS, 0.1% PEG 8000, 22 ± 1 °C; apparent second-order rate constant kapp from kobs; k2 = kapp × SI
[3] = molecular target: B1; assay: SDS-stable covalent serpin-protease complex on reducing SDS-PAGE; 2 µg rKAL mixed with 0.5-1 µg KLK1 (2-3 min), 5 µg KLK1-99Lm (20 min) or 0.5 µg KLK1-70Lm (2 min) at room temperature, no heparin; Coomassie stain

Row | SI (stoichiometry of inhibition) [1] | k2 (kapp × SI, second-order rate constant) [2] | kapp (apparent second-order rate constant) [2] | binding result [3] | Binder
1 | 1.4 | 3400 M⁻¹ s⁻¹ | 2400 M⁻¹ s⁻¹ |  | B1
2 | 1.5 | 2000 M⁻¹ s⁻¹ | 1300 M⁻¹ s⁻¹ |  | B2
3 |  |  |  | binds | B3
4 | 1.8 | 1800 M⁻¹ s⁻¹ | 1000 M⁻¹ s⁻¹ |  | B4
5 | 1.5 | 1500 M⁻¹ s⁻¹ | 1000 M⁻¹ s⁻¹ |  | B5
6 | 1.6 | 3500 M⁻¹ s⁻¹ | 2200 M⁻¹ s⁻¹ |  | B6
7 | 1.8 | 2900 M⁻¹ s⁻¹ | 1600 M⁻¹ s⁻¹ |  | B7
